Where no end group is shown, it is not given here.

First the molecules themselves.
B4: lipocalin mutein of SEQ ID NO: 13, linked to PEG40 (designed binder)
chain: QDSTSDLIPAPPLSKVPLQQNFQDNQFHGKWYVVGLAGNEVLREDKDPMKMWATIYELKEDKSYNVTIVMPLAEKCEYLFQTFVPGCQPGEFTLGGIKSGPGRTSGLVRVVSTNYNQHAMVFFKVVWQNREVFWVTLYGRTKELTSELKENFIRFSKSLGLPENHIVFPVPIDQCIDG
modifications: branched 40k PEG-maleimide on the free Cys at position 87
notes: hNGAL mutein with Ser 87 back-mutated to Cys and PEGylated there
B6: synthetic non-modified human Hepcidin-25 (peptide)
peptide: DTHFPICIFCCGCCHRSKCGMCCKT
modifications: not fully specified (bridges); ends and bridges not checked
notes: also called hHepcidin-25; non-biotinylated human hepcidin

In experiment [1] the target is T1, cynomolgus Hepcidin-25 (cynomolgus, UniProt A7XEI3 60-84, not fully specified).
T1 construct: mature
T1 peptide: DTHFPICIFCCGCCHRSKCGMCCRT
The experiment can be described thus: SPR (Biacore T100), mutein immobilized on CM5 chip, hepcidin-25 in solution, 1:1 model. As for the experimental part: (§1) Lipocalin muteins were immobilized to a CM5 sensor chip using standard amine chemistry: The surface of the chip was activated using EDC and NHS. Subsequently, 20 μg/mL lipocalin mutein solutions in 10 mM sodium acetate pH 4.5 (60 μg/mL in 10 mM sodium acetate pH 4.0 for pegylated lipocalin mutein) were applied at a flow rate of 5 μL/min until a surface density of 500-700 resonance units (RU) for non-modified lipocalin muteins and of approximately 1600 RU for pegylated lipocalin with the sequence of SEQ ID NO: 13 was achieved. Residual activated groups were saturated with ethanolamine. The reference channels were treated with EDC/NHS following ethanolamine (blank immobilization). All reagents and materials were purchased from GE Healthcare.
(§2) Serial dilutions of human and cynomolgus Hepcidin-25 in running buffer (HBS-EP+, GE Healthcare, BR-1006-68) were applied to the prepared surface. The following parameters were used for the binding assay: contact time 60 s, dissociation time 180-360 s, flow rate 30 μL/min. All measurements were performed on a Biacore T100 instrument (GE Healthcare) at 25° C.
(§3) Data were evaluated with Biacore T100 Evaluation software (V 2.0.1). Double referencing was used. The 1:1 Binding model (Langmuir) was used to fit the raw data.
(In SPR one partner is held on a chip, and binding of the other changes the refractive index at the surface.)

In experiment [2] the target is B6. Described as above. The procedure:
as §1, §2, §3

The target of experiment [3] is B6. The experiment can be described thus: competition ELISA: non-biotinylated human hepcidin-25 titrated against a constant concentration of mutein; free mutein detected on plate-captured biotinylated human hepcidin. As for the experimental part: The binding affinity of the Lcn2 muteins to non-modified hepcidin-25 in solution was evaluated in a competition ELISA approach. Therefore, a constant concentration of 1 μg/ml C-terminal biotinylated human hepcidin (Bachem AG, CH) was captured on the surface of a polystyrol plate (Greiner, GE) via Neutravidin (Thermo Scientific, 5 μg/ml, GE). In parallel a two step dilution series of non-biotinylated human hepcidin starting from 1 μM was incubated with a constant concentration of hepcidin-specific mutein for 1 h at room temperature in a non-protein binding 96 well polypropylene plate (Nunc, GE). The constant concentration of lipocalin muteins corresponds to the EC₅₀ of the respective muteins as determined in a direct ELISA as described above in this example. In the following the mixture of non-modified human hepcidin and lipocalin mutein was transferred onto the hepcidin-captured Neutravidin plate. The C-terminal biotinylated hepcidin was allowed to compete with the non-modified hepcidin for Anticalin binding for 20 min. at room temperature. During these 20 min, free lipcocalin mutein was bound to the captured hepcidin and detected via a rabbit anti-strep-tag II polyconal antibody (GenScript, USA). A goat anti-rabbit IgG-HRP conjugate (Abcam, UK) was employed as secondary detection antibody. Parallel to the competition assay, anticalin binding was determined on the same plate in a “direct” ELISA, in order to obtain a standard curve linking the RFU values to anticalin concentration. This curve was then used to standardize competition data to the level of anticalins bounds to the plate and fitted with Graphpad software. IC₅₀ values correspond to the half-maximum amount of lipocalin mutein bound to the plate.
A general note: In an ELISA, binding on a coated surface is turned into a signal by an enzyme label.

Experiment [4] deals with T2, C-terminal biotinylated human Hepcidin-25 (human, not fully specified; biotinylated via a Lysine residue coupled to the C-terminus via a Mini-PEG linker).
T2 construct: Bought from Bachem AG; Captured on plates via Neutravidin; also called C-terminal biotinylated hepcidin; C-terminal biotinylated hHepcidin
T2 peptide: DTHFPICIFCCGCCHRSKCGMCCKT
The experiment can be described thus: direct ELISA, biotinylated hepcidin captured via Neutravidin, mutein titrated. As for the experimental part:
(§4) A “direct” ELISA was performed to verify the binding affinity and specificity of the selected Lcn2 muteins. Therefore, a constant concentration of 1 μg/ml C-terminal biotinylated hepcidin (Bachem AG, CH) was captured on the surface of a polystyrol plate (Greiner, GE) via Neutravidin (Thermo Scientific, 5 μg/ml). Two step dilution series of purified Lcn2 muteins were incubated with the captured hepcidin for 1 h at room temperature and detected either via the Strep-tag II using a rabbit anti-strep-tag II polyconal antibody (GenScript, USA) or by using a scaffold-specific polyclonal rabbit antibody. In both cases an anti rabbit IgG-HRP conjugate (Abcam, UK) was employed as secondary detection antibody.
(§5) The absorption ΔA at […] was measured in an ELISA reader (Tecan, GE) and the data were fitted with Graphpad Prism software (Statcom, USA).

For experiment [5], the target named is T1, cynomolgus Hepcidin-25. The experiment can be described thus: direct ELISA on cynomolgus hep-25, mutein titrated. As for the experimental part:
as §4, §5

Experiment [6] deals with B6. In words: cell-based or functional assay.
The target of experiment [7] is T1, cynomolgus Hepcidin-25. In words: SPR, Biacore T100, mutein amine-coupled to CM5 chip, hepcidin as analyte, 25 C. The procedure: as §1, §2, §3
The target of experiment [8] is T2, C-terminal biotinylated human …. The experiment can be described thus: direct ELISA, biotinylated hepcidin captured via Neutravidin. As for the experimental part: as §4, §5
Experiment [9] deals with B6. The experiment can be described thus: SPR, Biacore T100, pegylated mutein amine-coupled to CM5 chip, hepcidin as analyte, 1:1 model, 25 C. As for the experimental part:
as §1, §2, §3

For experiment [10], the target named is murine ferroportin (FPN) carboxy-terminally fused with green fluorescent protein (GFP) (murine), Q9JHI9. The experiment can be described thus: cell-based or functional assay.
Sequence of murine ferroportin (FPN) carboxy-terminally fused with green fluorescent protein (GFP) (murine), Q9JHI9 (Q9JHI9 whole entry, the tested form may be a part): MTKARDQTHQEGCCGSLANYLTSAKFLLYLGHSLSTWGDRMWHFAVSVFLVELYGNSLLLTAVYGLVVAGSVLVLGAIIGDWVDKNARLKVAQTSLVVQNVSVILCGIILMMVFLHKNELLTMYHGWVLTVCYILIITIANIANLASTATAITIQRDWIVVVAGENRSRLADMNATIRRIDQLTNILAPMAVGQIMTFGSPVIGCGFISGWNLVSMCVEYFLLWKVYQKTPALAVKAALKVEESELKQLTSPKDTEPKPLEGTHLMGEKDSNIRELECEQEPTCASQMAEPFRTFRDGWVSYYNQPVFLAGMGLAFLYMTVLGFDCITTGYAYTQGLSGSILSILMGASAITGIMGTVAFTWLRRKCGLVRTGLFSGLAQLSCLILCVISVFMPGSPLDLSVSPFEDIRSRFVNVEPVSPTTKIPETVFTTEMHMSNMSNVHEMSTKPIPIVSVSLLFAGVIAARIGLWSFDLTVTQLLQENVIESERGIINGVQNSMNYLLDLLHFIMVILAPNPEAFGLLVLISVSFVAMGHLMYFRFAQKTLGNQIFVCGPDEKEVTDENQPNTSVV
Experiment [11] addresses T3, lipocalin mutein of SEQ ID NO: 14, linked to PEG40 (branched 40k PEG-maleimide on the free Cys at position 87).
T3 construct: hNGAL mutein with Ser 87 back-mutated to Cys and PEGylated there
T3 chain: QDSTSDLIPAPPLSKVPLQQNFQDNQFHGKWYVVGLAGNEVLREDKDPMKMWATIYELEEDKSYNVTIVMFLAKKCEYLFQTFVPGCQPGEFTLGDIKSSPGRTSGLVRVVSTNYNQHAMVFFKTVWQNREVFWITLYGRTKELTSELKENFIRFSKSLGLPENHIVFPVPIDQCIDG
The experiment can be described thus: competition ELISA, free human hepcidin against captured biotinylated hepcidin.

The target in experiment [12] is B4. The description is as above.

B1: lipocalin mutein of SEQ ID NO: 1 (designed binder)
chain: QDSTSDLIPAPPLSKVPLQQNFQDNQFHGKWYVVGLAGNEVLREDKDPMKMWATIYELEEDKSYNVTIVMFLAKKCEYLFQTFVPGSQPGEFTLGDIKSSPGRTSGLVRVVSTNYNQHAMVFFKTVWQNREVFWITLYGRTKELTSELKENFIRFSKSLGLPENHIVFPVPIDQCIDG
notes: also called Lcn2 mutein; hNGAL mutein
For the molecule B1, the Kd (usually the free concentration of one partner at which half of the binding sites on the other are occupied at equilibrium, for simple one-to-one binding) worked out at 0.332 nM with cynomolgus Hepcidin-25 [1], 0.589 nM in [2], 0.26 nM in experiment [4] and 0.43 nM with cynomolgus Hepcidin-25 [5]. Further, the koff (in general, a measure of how fast the partners let go of each other) was 0.000934 s⁻¹ with cynomolgus Hepcidin-25 [1] and 0.00116 s⁻¹ in experiment [2]. Moreover, the kon (in general, a measure of how fast the partners come together) was determined as 2.84e+06 M⁻¹ s⁻¹ with cynomolgus Hepcidin-25 [1] and 1.97e+06 M⁻¹ s⁻¹ in experiment [2]. Moreover, the IC50 (in general, the point on the concentration scale where inhibition reaches its midpoint) in experiment [3] was 0.34 nM. Besides, the “IC50 of neutralization of hepcidin-induced (40 nM) internalization and degradation of FPN-GFP in T-REx-293 cells, GFP fluorescence by flow cytometry” value (“IC50 of neutralization … by flow cytometry” below) in [6] stood at 66 nM. Also, in the experiment with cynomolgus Hepcidin-25 [7], the “fold higher affinity compared to the human target” value (from here on “fold higher affinity”) is roughly 2 fold.

B2: pegylated mutein of SEQ ID NO: 8 (designed binder)
chain: QDSTSDLIPAPPLSKVPLQQNFQDNQFHGKWYVVGLAGNEVLREDKDPMKMWATIYELKEDKSYNVTIVMPLAEKCEYLFQTFVPGCQPGEFTLGGIKSGPGRTSGLVRVVSTNYNQHAMVFFKVVWQNREVFWVTLYGRTKELTSELKENFIRFSKSLGLPENHIVFPVPIDQCIDG
modifications: branched 40k PEG-maleimide on Cys 87
For B2, the “factor by which pegylation reduced the binding affinity (against the non-pegylated mutein)” value in [8] was determined as 5 fold.

B3: lipocalin mutein of SEQ ID NO: 8 (designed binder)
chain: QDSTSDLIPAPPLSKVPLQQNFQDNQFHGKWYVVGLAGNEVLREDKDPMKMWATIYELKEDKSYNVTIVMPLAEKCEYLFQTFVPGSQPGEFTLGGIKSGPGRTSGLVRVVSTNYNQHAMVFFKVVWQNREVFWVTLYGRTKELTSELKENFIRFSKSLGLPENHIVFPVPIDQCIDG
notes: also called Lcn2 mutein
Regarding B3, the Kd with cynomolgus Hepcidin-25 [1] was found to be 0.066 nM; in [2], 0.123 nM; in experiment [4] it was 0.66 nM; with cynomolgus Hepcidin-25 [5], 0.67 nM. Besides, the koff with cynomolgus Hepcidin-25 [1] is 0.000245 s⁻¹; in [2], 0.000178 s⁻¹. The kon with cynomolgus Hepcidin-25 [1] turned out to be 3.74e+06 M⁻¹ s⁻¹; in experiment [2] it was 1.45e+06 M⁻¹ s⁻¹. The IC50 in experiment [3] came to 0.1 nM. Moreover, the “IC50 of neutralization … by flow cytometry” value in experiment [6] stood at 31 nM. The “fold higher affinity” value in the experiment with cynomolgus Hepcidin-25 [7] was roughly 2 fold.
In the case of B4, the Kd was found to be 0.041 nM in experiment [2], 3.49 nM in experiment [4] and 0.04 nM in [9]. This molecule came in with an off-rate (koff) in [2] of 0.000123 s⁻¹. In addition, the kon in experiment [2] amounted to 2.98e+06 M⁻¹ s⁻¹. For the same molecule, the IC50 in [3] amounted to 0.24 nM. For the same molecule, in [6], the “IC50 of neutralization … by flow cytometry” value was 34 nM. Besides, in the experiment with cynomolgus Hepcidin-25 [7], the “fold higher affinity” value is roughly 2 fold.

B5: pegylated mutein of SEQ ID NO: 1 (designed binder)
chain: QDSTSDLIPAPPLSKVPLQQNFQDNQFHGKWYVVGLAGNEVLREDKDPMKMWATIYELEEDKSYNVTIVMFLAKKCEYLFQTFVPGCQPGEFTLGDIKSSPGRTSGLVRVVSTNYNQHAMVFFKTVWQNREVFWITLYGRTKELTSELKENFIRFSKSLGLPENHIVFPVPIDQCIDG
modifications: branched 40k PEG-maleimide on Cys 87
With B5, the “factor by which pegylation reduced the binding affinity (against the non-pegylated mutein)” value in [8] was determined as 8 fold.
Take B6: in [10], the EC80 of hepcidin-mediated degradation of the Fpn-GFP fusion protein (GFP fluorescence by flow cytometry) amounted to 40 nM. Further, the results for the “factor by which pegylation reduced the binding affinity (against the non-pegylated mutein)” value in experiment [11] and in experiment [12] were 4 fold and 2 fold, respectively.

(Values after patent publication US20170369542A1 (Pieris, published 2017).)
